The source of these data is article PMC9224634, “Noninvasive Mapping of Angiotensin Converting Enzyme-2 in Pigeons Using Micro Positron Emission Tomography” (Life, 2022).

For series [1], the system named is ACE2. The series can be described thus: in vivo. As to conditions: female, iv, 15 MBq. The procedure: Injection route: Chloral hydrate 10% was used for intramuscular anesthesia.
Micro PET/CT imaging: Four healthy pigeons (female) were injected with 15 MBq ^68Ga-HZ20 through the pterygoid vein, and then dynamic imaging was performed for 40 min to observe the dynamic distribution of the probe in the body. The images were acquired for 30 min, 40 min and 60 min, with a single PET scan time of 600 s. The Avator software was used to display the images, outline the region of interest for the main organs, record the maximum standard uptake values for the outlined areas, and calculate the dynamic changes in SUVmax for different organs. At the end of the 60 min imaging, the pigeons were euthanized and the main organs were obtained for in vitro imaging.

Series [2] addresses ACE2. Also noted: method as in earlier work. The conditions noted are these: ACE2-specific peptide inhibitor; ref 10 (Huang et al.); cited from earlier work.
Series [3] deals with ACE2. Also noted: method as in PMID 34174177. As to conditions: cited from earlier work.

pKd, pKi: −log10 of the molar value.

With `CC(C)C[C@@H]1NC(=O)[C@@H]2CCCN2C(=O)[C@H](CO)NC(=O)[C@@H](NC(=O)[C@H](Cc2c[nH]cn2)NC(=O)[C@H](CO)NC(=O)[C@H](Cc2ccc(O)cc2)NC(=O)[C@H](CC(=O)O)NC(=O)CNC(=O)CN2CCN(CC(=O)O)CCN(CC(=O)O)CCN(CC(=O)O)CC2)CSSC[C@@H](C(=O)N[C@H](C(=O)N[C@@H](Cc2ccc(O)cc2)C(=O)N2CCC[C@H]2C(=O)N[C@@H](CC(=O)O)C(=O)N2CCC[C@H]2C(=O)N[C@@H](CCC(=O)O)C(=O)NCC(=O)NCC(=O)NCC(N)=O)[C@@H](C)O)NC(=O)[C@H](CCCCN)NC(=O)[C@H](Cc2c[nH]c3ccccc23)NC(=O)[C@H](Cc2c[nH]c3ccccc23)NC(=O)[C@@H]2CCCN2C(=O)[C@H](Cc2ccc(O)cc2)NC(=O)[C@H](Cc2ccc(O)cc2)NC(=O)[C@H](CCCNC(=N)N)NC1=O` [68Ga-HZ20, metal not drawn], the SUV at 40 min stood at 0.84 SUV with ACE2 [1] (SUVmax heart, final); 2.51 SUV with ACE2 [1] (liver uptake (SUVmax)); 0.63 SUV in the series with ACE2 [1] (stomach uptake (SUVmax), peak). In the series with ACE2 [1] (SUVmax heart, initial), this molecule registered an SUV at 0 h of 3.08 SUV. Besides, the SUV at 20 min in the series with ACE2 [1] (SUVmax kidney) was 6.95 SUV; in the series on ACE2 [1] (SUVmax lung), 1.11 SUV. Moreover, the SUV at 1 h with ACE2 [1] (kidney uptake (SUV)) was found to be 3.05 SUV; in the series on ACE2 [1] (liver uptake (SUV)) it was 0.51 SUV; with ACE2 [1] (lung uptake (SUV)), 0.41 SUV; in the series with ACE2 [1] (stomach uptake (SUV)) it was 0.52 SUV. Also, in the series on ACE2 [1] (liver uptake (SUVmax), initial), the SUV was found to be 0.91 SUV.
For orientation: pKi means the Ki on a negative log10 scale, so that one unit is a factor of ten. One may read the pKd as the negative decadic logarithm of the Kd, by convention in mol/L. Turning to “Ac-GDYSHCSPLRYYPWWKCTYPDPEGGG-NH2 (disulfide) [DX600]”, the pKi on ACE2 [2] is 8.55. Moreover, the pKd at ACE2 [3] is 7.01.
